These results are taken from patent US20210198377A1 (XDCEXPLORER SHANGHAI, published 2021).

The target of experiment [1] is T1, cynomolgus monkey TPBG (full length, on cells) (cynomolgus monkey, UniProt Q4R8Y9 35-420).
T1 construct: whole, on cells; On transfected CHO-K1 cells; also called cTPBG; CHO-K1-cTPBG
T1 sequence (looked up): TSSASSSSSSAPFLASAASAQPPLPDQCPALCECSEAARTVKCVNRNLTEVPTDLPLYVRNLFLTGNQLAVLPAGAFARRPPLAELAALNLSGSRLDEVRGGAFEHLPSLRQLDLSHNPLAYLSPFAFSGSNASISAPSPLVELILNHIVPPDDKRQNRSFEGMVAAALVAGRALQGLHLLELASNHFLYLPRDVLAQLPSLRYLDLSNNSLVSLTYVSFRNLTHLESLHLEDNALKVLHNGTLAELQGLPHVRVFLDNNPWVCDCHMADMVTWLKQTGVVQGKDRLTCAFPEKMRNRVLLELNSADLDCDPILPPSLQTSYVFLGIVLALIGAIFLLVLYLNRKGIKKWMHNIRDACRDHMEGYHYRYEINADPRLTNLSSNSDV
Nature of the experiment: FACS on CHO-K1-cTPBG cells. The text has this: (§1) The stable cell lines CHO-k1-hTPBG, CHO-k1-cTPBG, CHO-k1-mTPBG (i.e. the CHO-k1-hTPBG 3A2F1, CHO-k1-cTPBG 3F13G4 and CHO-k1-mTPBG 3A3 shown in table 7) and CHO-K1 cells were expanded to a 90% of confluency in T-75 cell culture flasks, the culture medium were removed, and cells were then rinsed twice with HBSS buffer (Hanks Balanced Salt Solution, purchased from Invitrogen) and lysed with enzyme-free cell dissociation buffer (Versene solution purchased from Life technology) and harvested. Harvested cells were rinsed with HBSS buffer twice and counted before diluting with HBSS buffer to 2×10⁶ cells /mL, and 10% goat serum blocking buffer was then added, wherein the percentage is the mass percentage. Cells were incubated on ice for 30 min, and then washed twice with HBSS buffer by centrifugation. The harvested cells were resuspended with FACS buffer (HBSS+1% BSA, wherein the percentage is mass percentage) to a concentration of 2×10⁶ cells /mL. 100 μL per well of the cells was aliquoted to 96-well FACS reaction plates, and 100 μL per well of test sample—the purified TPBG antibody obtaining from Embodiment 2 was added before incubating on ice for 2 h. The plate was washed with the FACS buffer twice by centrifugation, and 100 μL per well of fluorescence (Alexa 488) labeled secondary antibody (purchased from Invitrogen) was then added and incubated on ice for 1 h. The plate was washed with the FACS buffer for three times by centrifugation, follow by resuspending in 100 μL of fixation buffer (4% (v/v) paraformaldehyde). Cells were washed with FACS buffer twice after 10 min, follow by resuspending with 100 μL of FACS buffer. The results were measured and analyzed by FACS (FACS Calibur, purchased from BD). Data analysis was performed by software (CellQuest) to obtain mean fluorescence intensity (MFI) of the cells, follow by calculating EC50 value by software (GraphPad Prism) analysis and data fitting. The analysis results were shown in Table 8 and FIGS. 7-10, and data in FIGS. 7-10 show the mean fluorescence intensity (MFI) of cells.

Experiment [2] deals with T2, mouse TPBG (full length, on cells) (mouse, UniProt Q9Z0L0 32-426).
T2 construct: whole, on cells; On transfected CHO-K1 cells; also called mTPBG; CHO-K1-mTPBG
T2 sequence (looked up): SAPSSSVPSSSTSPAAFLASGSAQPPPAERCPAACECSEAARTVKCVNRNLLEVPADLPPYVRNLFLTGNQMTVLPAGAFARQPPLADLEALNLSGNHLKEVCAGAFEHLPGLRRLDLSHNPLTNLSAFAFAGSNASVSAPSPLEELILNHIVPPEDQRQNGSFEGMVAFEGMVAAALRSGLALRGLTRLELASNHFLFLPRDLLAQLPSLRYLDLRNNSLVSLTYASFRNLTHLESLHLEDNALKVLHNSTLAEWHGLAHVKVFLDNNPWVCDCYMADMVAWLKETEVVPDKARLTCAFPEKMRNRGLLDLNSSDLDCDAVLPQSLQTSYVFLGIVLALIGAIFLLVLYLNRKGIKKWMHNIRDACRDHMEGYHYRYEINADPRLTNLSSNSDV
Nature of the experiment: FACS on CHO-K1-mTPBG cells.
Text: as §1

A further experiment concerns the target T3, human TPBG-hFc (human, UniProt Q13641 32-355).
T3 construct: also called immunogen A; hFc tagged TPBG protein; not shown: The human IgG Fc fragment of the pCpC vector (Invitrogen V044-50) and any linker to it
T3 sequence: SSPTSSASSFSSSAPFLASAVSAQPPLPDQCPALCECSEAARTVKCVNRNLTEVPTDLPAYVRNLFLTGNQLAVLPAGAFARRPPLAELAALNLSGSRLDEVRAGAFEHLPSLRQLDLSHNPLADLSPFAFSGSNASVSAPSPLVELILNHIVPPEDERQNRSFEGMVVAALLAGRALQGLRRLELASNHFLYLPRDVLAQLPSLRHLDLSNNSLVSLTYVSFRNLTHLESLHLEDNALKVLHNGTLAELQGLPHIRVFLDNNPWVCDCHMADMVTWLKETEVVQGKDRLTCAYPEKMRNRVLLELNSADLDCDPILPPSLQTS
As to the kind of experiment: ELISA, coated human TPBG-hFc 1.0 ug/mL; antibody 20 nM. How it is done: The purified immunogen A (as for its method of preparation please refer to step 1 in Example 1) diluting with PBS to a final concentration of 1.0 μg/mL was aliquoted into a 96-well ELISA plate at 100 μL per well, and sealed with a parafilm and incubated at 4° C. overnight. The plate was washed twice with plate washing buffer (PBS containing 0.01% (v/v) Tween 20), and blocked with blocking buffer (PBS containing 0.01% (v/v) Tween 20 and 1% (w/w) BSA) at room temperature for 2 h. The blocking buffer was discarded, and 100 μL per well of the purified antibody obtained from Embodiment 2 was added. After incubating at 37° C. for 2 h, the plate was washed for three times with plate washing buffer (PBS containing 0.01% (v/v) Tween 20). HRP (horseradish peroxidase)-labeled secondary antibody (purchased from Sigma) was added and incubated at 37° C. for 2 h, and the plate was washed for three times using plate washing buffer (PBS containing 0.01% (v/v) Tween 20). 100 μL of TMB substrate was aliquoted into each well, incubated at room temperature for 30 min, and 100 μL of stop buffer (1.0N HCl) per well was subsequently added. A₄₅₀ₙₘ values were read using the ELISA plate reader (SpectraMax 384plus purchased from Molecular Device), and the results were shown in FIG. 6 and table 6. […] In Table 6 the IgG control herein is a mice IgG control, the data in the Table are OD₄₅₀ₘₙ values, and Blank means the OD₄₅₀ₘₙ value when there is only PBS buffer in the plate.
Background: ELISA stands for enzyme-linked immunosorbent assay.

Residue numbers refer to the chain shown, from its start.

B1: 39A11G5F2 (antibody, V domains shown)
VH: QVQLQQSGAELMKPGASMRLSCKATGYTFTGYWLEWIKRRPGHGLEWIGEILPGRGSTNYNEKFKGKATFTAETSSNTAYMQLTSLTTEDSAIYYCARGGRDFDNWGQGTTLTVSS
VL: DIQMTQSTSSLSASLGDRVTISCSASQGINNHLNWYQQKPDGTVKLLIYYTSSLHSGVPSRFSGSGSGTDYSLTISNLEPEDIAIYYCQQFSKLPYTFGGGTKVEMK
notes: Mouse hybridoma antibody purified from culture supernatant; also called TPBG antibody; lead antibody
By EC50 is commonly meant the concentration that produces a half-maximal response. Regarding B1, the values for the EC50 in experiment [1] and in experiment [2] were 1.35 nM and 1.88 nM, respectively. In the experiment with human TPBG-hFc, this molecule displayed an OD450nm of 2.5 OD450nm.

B2: 52C9E9F6 (antibody, V domains shown)
VH: QVQLQQSGAELMKPGASVKLSCKATGYTFTGYWIEWIKQRPGHGLEWIGEILPGRGSTDYNEKFKGKATFTADTSSNTAYMQLSSLTTEDSAIYYCTRGRLDFTYWGQGTLVTVSA
VL: B1 VL with S7T, N30R, H32Y, I85T, F91Y, L94V, Y96W, V104L, M106I
notes: as for B1
In experiment [1], B2 gave an EC50 of 1.54 nM. In experiment [2], the binding result is reported as “no binding”. The molecule further yielded an OD450nm in the experiment with human TPBG-hFc of 2.69 OD450nm.

B3: 103E2E9C2 (antibody, V domains shown)
VH: EVQLQQSGPVLVKPGASVKMSCEASGYSFIDYYMSWVKQSRGRSLEWIGVFNPYSGEIIYNQKFKGKATLTVDKSSSTAYMELSSLTSEDSGVYSCARLRISYYAIDYWGQGTSVAVSS
VL: ENVLTQSPAIMSASPGEKVTMTCRATSSVSSGHFHWYQQKSGASPKVWIYSTSNLASGVPARFSGSGSGTSFSLTISSVEAEDVATYFCQQYSGYPLTFGGGTKLEIK
notes: as for B1
The molecule B3 displayed an EC50 in experiment [1] of 0.83 nM. Moreover, the binding result in experiment [2] is listed as “no binding”. For the same molecule, in the experiment with human TPBG-hFc, the OD450nm was determined as 2.62 OD450nm.

B4: 12B12C7C3 (antibody, V domains shown)
VH: DVQLVESGGGLVQPGGSRKLSCAASGFTFSNFGMHWVRQAPEKGLEWVAYISSGSTSFYYADTVKGRFTISRDNPKNTLFLQMTSLRSEDTAMYYCSRTNSLLRGFFDAWGAGTTVTVSS
VL: DIVLTQSPASLAVSLGQRATISCRASQSVSSSSYTYLHWYQQKPGQPPKLLIKSASNLESGVPARFSGTGSGTDFTLNIHPVEEEDTATYYCQHSWEIPLTFGAGTKLELK
notes: as for B1
Regarding B4, a half-maximal response in experiment [1] (EC50) required 0.59 nM. Moreover, the binding result in experiment [2] is reported as “no binding”. Moreover, the OD450nm with human TPBG-hFc turned out to be 2.83 OD450nm.

B5: 99E12C7H1 (antibody, V domains shown)
VH: QIQLVQSGPELKKPGETVKISCKPSGYTFTAYGLSWVKQAPGQGFQWMGWINTYSGVPTYTDDFKGRFAFSLETSAGTASLQITNLKNEDTATYFCARSSIPPFEYWGPGTTLTVSS
VL: SFVMTQSPKFLLVSVGDRVTITCKASQSVSNDVAWYQQKPGQPPRVLIYFASNRYTGVPDRFTGSGYGTDFTFTISTVQAEDLALYFCQQDYSSPWTFGGGTKLEIK
notes: as for B1
As to B5, in experiment [1], the EC50 worked out at 2.29 nM. Further, the binding result in experiment [2] is “no binding”. This molecule also returned an OD450nm with human TPBG-hFc of 2.88 OD450nm.

B6: 106D5G3D10 (antibody, V domains shown)
VH: EVQLVESGGGLVKPGGSLKLSCAASGFTFSDYGMHWVRQAPEKGLEWVGYISSGTYVVYYADTVKGRFTISRDNAKNTLFLQMTSLRSEDTAIYYCSTYGSNPFDYWGQGTTLTVSS
VL: QLVLTQSPAIMSASPGEKVTITCSATSSVSSMHWFQQKPVTSPKLWIYSTSNLASGVPTRFSGSGSGTSYSLTISRMEAEDAATYYCQQRSGYPPIFTFGSGTKLEIK
notes: as for B1
In turn, B6 displayed an EC50 in experiment [1] of 1.26 nM. Besides, the binding result in experiment [2] is given as “no binding”. This molecule also came in with an OD450nm in the experiment with human TPBG-hFc of 2.82 OD450nm.

B7: 28D4E6A9 (antibody, V domains shown)
VH: DVQLVESGGGLVRPGGSLKLSCAASGFTFSNYVMSWARQSPEKRLEWVAEISTGGSHTYYSDTVTGRFTISRDNAKKALYLEMSSLRSEDTAIYYCIMFYYGSSYSMDYWGQGTSVTVSS
VL: DIQMTQSTSSLSASLGDRITISCRASQDIRNYLNWYQQKPDGTVKLLIYHTSRLHSGVPSRFSGSGSGTDYSLTISNLEQEDIATYFCQQGDTLPLTFGAGTRLELK
notes: as for B1
As to B7, the response in experiment [1] was half-maximal at 0.25 nM (EC50). The binding result in experiment [2] was “no binding”. In addition, in the experiment with human TPBG-hFc, the OD450nm was 2.59 OD450nm.

B8: 37H9C5G2 (antibody, V domains shown)
VH: QVQLQQSDAELVRPGASVKMSCKVSGYTFTDHTIHWMKQRPEQGLEWIGYIYPRDGSGTYNEKFKGKATLTADKSSSTAYMQLNSLTSEDSAVYFCARDGSSHYWYFDVWGTGTTVTVSS
VL: DIQMTQSPASLSASVGETVTITCRASEIIYNYLAWYQQKQGKSPQLLVYNAKTLAEGVPSRFSGSYSGTQFSLNINSLQSEDFGIYYCQHHHDTPLTFGAGTKLDLK
notes: as for B1
Regarding B8, the results for the EC50 in experiment [1] and in experiment [2] were 0.62 nM and 11.1 nM, respectively. In the experiment with human TPBG-hFc, this molecule gave an OD450nm of 2.63 OD450nm.

B9: 5G4H10G5 (antibody, V domains shown)
VH: EVQLVESGGDLVQPGGSLKLFCAASGFTFSTYGLSWVRQTPDKRLELVATITNNDGSAYYPDSVKGRFTISRDKAKNTLFLQMTSLKSEDTAMYYCARETGFGSSYLFDYWGQGTLVTVSA
VL: NIVMTQTPKFLLVSAGDRVTITCKASQSVSNDVAWYQQKPGQSPKLLIYFATNRYTGVPNRFTGSGYGTEFTFTISSVQAEDLAVYFCQQDYSSPTFGGGTKLEIK
notes: as for B1
Regarding B9, the results for the EC50 in experiment [1] and in experiment [2] were 0.84 nM and 9.07 nM, respectively. The molecule further yielded an OD450nm with human TPBG-hFc of 2.8 OD450nm.

B10: 36A10D8B12 (antibody, V domains shown)
VH: DVQLQESGPGMVKPSQSLSLTCTVTGYSITSGYDWHWIRHFPGNKLEWMGYISYSGNTNYNPSLKSRISITHNTSKNHFFLRLNSVTTEDTATYYCARGYGNWDAMDYWGQGTSVTVSS
VL: DIVMTQSQKFMSTSVGDRVSVTCKASQIVDTNVAWYQQKPGQSPKALISSASYRYSGVPDRFTGSGSGTDFTLTISNVQSEDLAEYFCQQYNSYPLTFGAGTKLELT
notes: as for B1
Regarding B10, in experiment [1], a half-maximal effect (EC50) was put at 0.6 nM. Also, the binding result in experiment [2] was “no binding”. For the same molecule, in the experiment with human TPBG-hFc, the OD450nm is 3.07 OD450nm.
